Source: US20030167476A1

Key:
[1] = target: OR2, RASSL derived from the human kappa opioid receptor (human); assay: cell-based or functional assay
[2] = target: OR1, RASSL derived from the human kappa opioid receptor (human); assay: cell-based or functional assay
[3] = target: OR2, RASSL derived from the human kappa opioid receptor (human); assay: binding to the receptor expressed in COS-7 and CHO-KI cells; Ki, method only 'as previously described'
[4] = target: OR1, RASSL derived from the human kappa opioid receptor (human); assay: as above

## Dynorphin A (from UniProt P01213 207-223) (peptide)
[1]
  EC50, signaling (activation of G protein-mediated signal): 1080 nM
[2]
  EC50, signaling (activation of G protein-mediated signal): 61 nM
[3]
  Ki: 125 nM
[4]
  Ki: 14.6 nM
